Assay results published in patent US20100204461 (published 2010).

Target: alpha-thrombin (UniProt P00734;P00734 P00734:328-363,P00734:364-622)
Test: fluorescence dequenching at 277 nM TAL2, protein ratios 1:1 to 100:1; t1/2 about 30 min at 10-fold excess; 10 mM KCl, 5 mM MgCl2, 12.5 mM Tris acetate pH 6.5

B1: TAL2 beacon with Dabcyl anchor (structured_DNA)
DNA 1: GGTTGGTTTGGTTGGCAACCTCTGCTACGTG
DNA 2: CACGTAGCAG
modifications: anchor 5' NH2-(CH2)6
  binding result: binds
